Test results as given in publication PMC6867900, “The Cyclic AMP Receptor Protein Regulates Quorum Sensing and Global Gene Expression in Yersinia pestis during Planktonic Growth and Growth in Biofilms” (mBio, 2019).

Target: the molecule itself
Assay: crystal structure

B1: Yersinia pestis cyclic AMP (cAMP) receptor protein (Crp) (natural protein)
chain: MVLGKPQTDPTLEWFLSHCHIHKYPSKSTLIHQGEKAETLYYIVKGSVAVLIKDEEGKEMILSYLNQGDFIGELGLFEEGQERSAWVRAKTACEVAEISYKKFRQLIQVNPDILMRLSSQMANRLQITSEKVGNLAFLDVTGRIAQTLLNLAKQPDAMTHPDGMQIKITRQEIGQIVGCSRETVGRILKMLEDQNLISAHGKTIVVYGTR
notes: also called Y. pestis Crp
  stoichiometry N: 2
